Measurements published in US20150353638A1 (INSTITUTE OF BASIC MEDICAL SCIENCES CHINESE ACADEMY OF …, published 2015).

B1: humanized anti-human DR5 monoclonal antibody AD15 (antibody, human IgG1, kappa)
heavy: not shown
light: DVVMTQSPLSLPVTPGEPASISCRSSQSLVHSNGNTYLHWYLQKPGQSPQLLIYKVSNRFSGVPDRFSGSGSGTDFTLKISRVEAEDVGVYFCFQSTHVPHTFGQGTKLEIKRTVAAPSVFIFPPSDEQLKSGTASVVCLLNNFYPREAKVQWKVDNALQSGNSQESVTEQDSKDSTYSLSSTLTLSKADYEKHKVYACEVTHQGLSSPVTKSFNRGEC
notes: Humanized from murine AD5-10 by CDR grafting; human IgG1 heavy chain constant region and kappa light chain
B2: humanized anti-human DR5 monoclonal antibody AD14 (antibody, human IgG1, kappa)
heavy: not shown
light: B1 light
notes: as for B1
B3: humanized anti-human DR5 monoclonal antibody AD10 (antibody, human IgG1, kappa, V domains shown)
VH: EIQLVQSGPELKKPGASVKVSCKASGYTFTDFSMNWVRQAPGQGLKWMGWINTETGEPTYADDFKGRFALSMDTSVSTAYLQISSLKAEDTAVYFCVRIDYWGQGTTVTVSS
VL: DIVMTQSPLSLPVTPGEPASISCRSSQSLVHSNGNTYLHWYLQKPGQSPQLLIYKVSNRFSGVPDRFSGSGSGTDFTLKISRVEAEDVGVYYCFQSTHVPHTFGQGTKLEIKR
notes: as for B1

Target: T1, antigen DR5 (human death receptor 5), immobilised on the CM5 chip (human, UniProt O14763 56-182, limits assumed)
T1 construct: The title says the antibodies are against the extracellular domain, but the construct used is not described; also called TRAIL receptor 2; TRAIL-R2
Test: SPR (Biacore X100), DR5 immobilised on CM5 chip, antibody injected as analyte

| Binder | Kd [nM] | koff [s⁻¹] | kon [M⁻¹ s⁻¹] |
| --- | --- | --- | --- |
| B1 | 2.95 | 0.0097 | 3.28e+06 |
| B2 | 1.65 | 0.014 | 8.44e+06 |
| B3 | 3.51 | 0.0198 | 5.64e+06 |
